{"source": "paper PMC549075"}
{"target": "Lamb brain tubulin (lamb)"}
{"substance": "HIV-1 Tat protein, Eli strain (natural protein)", "ΔOD 350 nm plateau of 15 μM tubulin at 37°C with 8 μM compound": "1.61 ΔOD 350 nm", "ΔOD ratio (plateau with 8 μM compound divided by plateau of tubulin alone)": 5.27}
{"substance": "Tat Eli peptide 38-72", "ΔOD 350 nm plateau of 15 μM tubulin at 37°C with 8 μM compound": "1.59 ΔOD 350 nm", "ΔOD ratio (plateau with 8 μM compound divided by plateau of tubulin alone)": 5.2}
{"substance": "Tat Eli peptide 73-99", "ΔOD 350 nm plateau of 15 μM tubulin at 37°C with 8 μM compound (same level as the control: not active in tubulin polymerization)": "0.3 ΔOD 350 nm", "ΔOD ratio (plateau with 8 μM compound divided by plateau of tubulin alone)": 1}
{"substance": "Tat Oyi peptide 38-72 (from UniProt P20893 38-72)", "ΔOD 350 nm plateau of 15 μM tubulin at 37°C with 8 μM compound": "0.78 ΔOD 350 nm", "ΔOD ratio (plateau with 8 μM compound divided by plateau of tubulin alone)": 2.56}
{"substance": "Tat Oyi peptide 73-101 (from UniProt P20893 73-101)", "ΔOD 350 nm plateau of 15 μM tubulin at 37°C with 8 μM compound (same level as the control: not active in tubulin polymerization)": "0.31 ΔOD 350 nm", "ΔOD ratio (plateau with 8 μM compound divided by plateau of tubulin alone)": 1.01}
